B1: EBF2 (EIN3-binding F-box protein 2) (other)
chain: MSGIFRFSGDEDCLLGGSMYLSPGSCPGVYYPARKRLRVAATSFYSGFEEKQTSIDVLPEECLFEILRRLPSGQERSACACVSKHWLNLLSSISRSEVNESSVQDVEEGEGFLSRSLEGKKATDLRLAAIAVGTSSRGGLGKLQIRGSGFESKVTDVGLGAVAHGCPSLRIVSLWNLPAVSDLGLSEIARSCPMIEKLDLSRCPGITDSGLVAIAENCVNLSDLTIDSCSGVGNEGLRAIARRCVNLRSISIRSCPRIGDQGVAFLLAQAGSYLTKVKLQMLNVSGLSLAVIGHYGAAVTDLVLHGLQGVNEKGFWVMGNAKGLKKLKSLSVMSCRGMTDVGLEAVGNGCPDLKHVSLNKCLLVSGKGLVALAKSALSLESLKLEECHRINQFGLMGFLMNCGSKLKAFSLANCLGISDFNSESSLPSPSCSSLRSLSIRCCPGFGDASLAFLGKFCHQLQDVELCGLNGVTDAGVRELLQSNNVGLVKVNLSECINVSDNTVSAISVCHGRTLESLNLDGCKNITNASLVAVAKNCYSVNDLDISNTLVSDHGIKALASSPNHLNLQVLSIGGCSSITDKSKACIQKLGRTLLGLNIQRCGRISSSTVDTLLENLWRCDILY
notes: In the yeast two-hybrid assays the cDNA was cloned into pAS2 or pACT2 (Clontech), so the protein was a fusion with the vector's domain; also called AAR27072.1
B2: EBF1 (EIN3-binding F-box protein 1) (other)
chain: MSQIFSFAGENDFYRRGAIYPNPKDASLLLSLGSFADVYFPPSKRSRVVAPTIFSAFEKKPVSIDVLPDECLFEIFRRLSGPQERSACAFVSKQWLTLVSSIRQKEIDVPSKITEDGDDCEGCLSRSLDGKKATDVRLAAIAVGTAGRGGLGKLSIRGSNSAKVSDLGLRSIGRSCPSLGSLSLWNVSTITDNGLLEIAEGCAQLEKLELNRCSTITDKGLVAIAKSCPNLTELTLEACSRIGDEGLLAIARSCSKLKSVSIKNCPLVRDQGIASLLSNTTCSLAKLKLQMLNVTDVSLAVVGHYGLSITDLVLAGLSHVSEKGFWVMGNGVGLQKLNSLTITACQGVTDMGLESVGKGCPNMKKAIISKSPLLSDNGLVSFAKASLSLESLQLEECHRVTQFGFFGSLLNCGEKLKAFSLVNCLSIRDLTTGLPASSHCSALRSLSIRNCPGFGDANLAAIGKLCPQLEDIDLCGLKGITESGFLHLIQSSLVKINFSGCSNLTDRVISAITARNGWTLEVLNIDGCSNITDASLVSIAANCQILSDLDISKCAISDSGIQALASSDKLKLQILSVAGCSMVTDKSLPAIVGLGSTLLGLNLQQCRSISNSTVDFLVERLYKCDILS
notes: In the yeast two-hybrid assays the cDNA was cloned into pAS2 or pACT2 (Clontech), so the protein was a fusion with the vector's domain; also called FBL6; At2g25490

Test [1] has as its target T1, EIN3 full-length protein (ETHYLENE-…3 transcription factor) (Arabidopsis, UniProt O24606 1-628).
T1 construct: Full-length EIN3 in the direct yeast two-hybrid tests, cloned in pAS2 or pACT2; In the immunoblots it is the endogenous or overexpressed EIN3 from plant extracts; also called At3g20770
T1 sequence: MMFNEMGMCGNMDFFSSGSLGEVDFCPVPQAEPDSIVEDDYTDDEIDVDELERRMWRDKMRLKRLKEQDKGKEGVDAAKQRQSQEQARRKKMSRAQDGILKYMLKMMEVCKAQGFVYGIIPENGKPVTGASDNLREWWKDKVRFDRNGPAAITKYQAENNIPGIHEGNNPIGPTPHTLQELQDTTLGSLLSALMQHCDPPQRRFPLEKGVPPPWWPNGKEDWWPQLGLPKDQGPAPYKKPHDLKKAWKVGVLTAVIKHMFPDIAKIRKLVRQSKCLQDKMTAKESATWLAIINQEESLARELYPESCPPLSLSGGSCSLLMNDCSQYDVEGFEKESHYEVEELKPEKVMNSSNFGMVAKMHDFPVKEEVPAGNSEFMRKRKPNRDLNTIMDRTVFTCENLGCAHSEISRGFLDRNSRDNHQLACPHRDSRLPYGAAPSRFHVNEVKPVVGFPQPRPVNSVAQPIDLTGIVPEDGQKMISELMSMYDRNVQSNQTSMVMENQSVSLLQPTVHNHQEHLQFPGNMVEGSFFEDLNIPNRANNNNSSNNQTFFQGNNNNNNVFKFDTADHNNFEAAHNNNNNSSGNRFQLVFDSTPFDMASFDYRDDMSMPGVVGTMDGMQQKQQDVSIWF
In words: yeast two-hybrid (summary in Example 8). An excerpt:
(§1) We then directly tested the possible interaction between EIN3 full-length protein and individual F-box proteins. Using genome-wide microarray experiments, we narrowed the search for EIN3-interacting F-box proteins by first testing those genes whose RNA levels were regulated by ethylene (Alonso et al., Science 301, 653-657, 2003; H. G. and J. R. E., unpublished data). From this gene list, two closely related candidate F-box proteins were identified which were able to interact with EIN3 in yeast two-hybrid assays (FIGS. 4C and 4E). We designated these two F-box proteins as EBF1 and EBF2 (for EIN3-binding F-box protein 1 and 2). EBF1 was previously named as FBL6 with no function assigned (Xiao and Jang, 2000). These two proteins share 57% identity in amino acid sequence (FIG. 4A), and each contains a well-conserved F-box motif in the amino-terminus and 18 tandem leucine-rich repeats (LRRs) in the carboxyl terminus (FIGS. 4A and 4B). Because LRR domains in several F-box proteins contribute to the substrate binding (Gagne et al., Proc Natl Acad Sci 99, 11519-11524, 2002), we tested whether the C-terminal LRR domains in EBF1 and EBF2 were sufficient for EIN3 interaction. […]

The target in test [2] is T1, EIN3 full-length protein (ETHYLENE-…3 …). In words: yeast two-hybrid, filter-lift beta-galactosidase.
From the text: as §1

Test [3] has as its target B2. Kind of test: yeast two-hybrid.
From the text: as §1

Test [4] deals with B1. Kind of test: yeast two-hybrid.
From the text: as §1

For the molecule B1, the binding result in test [1] is recorded as “binds”. Turning to B2, in test [2], the binding result is recorded as “binds”.

B3: ASK1, an Arabidopsis Skp1 protein (other, UniProt Q39255 1-160, looked up)
chain: MSAKKIVLKSSDGESFEVEEAVALESQTIAHMVEDDCVDNGVPLPNVTSKILAKVIEYCKRHVEAAASKAEAVEGAATSDDDLKAWDADFMKIDQATLFELILAANYLNIKNLLDLTCQTVADMIKGKTPEEIRTTFNIKNDFTPEEEEEVRRENQWAFE
notes: Yeast two-hybrid fusion in pAS2 or pACT2
For the molecule B3, the binding result in test [3] and in test [4] was “binds” each time.
